Substitutions are numbered along the chain they refer to. Each block holds one binder with its values, some of them ahead of it.
What was measured:
[1] = target: T1, human FcγRIIb extracellular domain with C-terminal His-tag (human, UniProt P31994 43-217); experiment: SPR; binding amount divided by that of 04H1389-G1m/04L1305-k0MT
T1 construct: extracellular domain; also called hFcγR IIb
T1 sequence (looked up): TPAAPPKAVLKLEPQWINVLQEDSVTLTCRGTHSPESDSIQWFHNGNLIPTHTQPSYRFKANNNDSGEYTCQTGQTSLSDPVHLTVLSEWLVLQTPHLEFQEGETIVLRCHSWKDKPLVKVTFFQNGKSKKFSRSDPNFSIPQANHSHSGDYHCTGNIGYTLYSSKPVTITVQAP

[2] = target: T1, human FcγRIIb extracellular domain with …; experiment: SPR; FcγRIIb bound amount per unit captured Ab
[3] = target: T2, human FcγRIa extracellular domain with C-terminal His-tag (human, UniProt P12314 16-292); experiment: SPR; KD of 04H1389-G1m/04L1305-k0MT divided by KD of variant
T2 construct: extracellular domain; also called hFcγR Ia; hFcγRIa
T2 sequence (P12314 16-292): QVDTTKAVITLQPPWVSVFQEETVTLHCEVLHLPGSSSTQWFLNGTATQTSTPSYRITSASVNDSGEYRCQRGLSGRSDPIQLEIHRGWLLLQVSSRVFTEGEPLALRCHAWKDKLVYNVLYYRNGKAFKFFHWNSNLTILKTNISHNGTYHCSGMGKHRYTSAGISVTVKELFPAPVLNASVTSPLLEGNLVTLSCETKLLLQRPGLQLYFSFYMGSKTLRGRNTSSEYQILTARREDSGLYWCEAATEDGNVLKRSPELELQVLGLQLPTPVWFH

[4] = target: T3, human FcγRIIIa F allotype extracellular domain with C-terminal His-tag (human, UniProt P08637 17-208); experiment: as above
T3 construct: extracellular domain; also called hFcγR IIIa F
T3 sequence (P08637 17-208): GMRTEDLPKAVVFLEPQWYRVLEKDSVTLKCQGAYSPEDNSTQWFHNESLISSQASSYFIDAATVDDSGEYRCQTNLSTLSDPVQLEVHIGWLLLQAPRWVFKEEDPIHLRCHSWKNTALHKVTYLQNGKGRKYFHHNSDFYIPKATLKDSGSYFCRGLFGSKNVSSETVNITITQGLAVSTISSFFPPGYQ

[5] = target: T4, human FcγRIIIa V allotype extracellular domain with C-terminal His-tag (human, UniProt P08637 17-208); experiment: as above
T4 construct: extracellular domain; also called hFcγR IIIa V
T4 sequence (P08637 17-208 F176V): as the sequence (P08637 17-208) above, with F160V counted along it

[6] = target: T5, human FcγRIIa H allotype extracellular domain with C-terminal His-tag (human, UniProt P12318 34-217); experiment: as above
T5 construct: extracellular domain; also called hFcγR IIa H
T5 sequence (looked up): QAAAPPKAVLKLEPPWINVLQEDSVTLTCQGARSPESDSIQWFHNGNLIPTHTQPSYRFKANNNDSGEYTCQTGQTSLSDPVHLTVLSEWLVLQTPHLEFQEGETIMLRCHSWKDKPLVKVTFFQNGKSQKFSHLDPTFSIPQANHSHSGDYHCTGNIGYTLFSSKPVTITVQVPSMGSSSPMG

[7] = target: T6, human FcγRIIa R allotype extracellular domain with C-terminal His-tag (human, UniProt P12318 34-217); experiment: as above
T6 construct: extracellular domain; also called hFcγR IIa R
T6 sequence (looked up): T5 sequence (looked up) with H134R

human FcRn [8] = target: T7, human FcRn (human, UniProt P55899 24-290; P61769 21-119); experiment: as above
T7 construct: Prepared by the method of WO 2010/107110; also called hFcRn

human FcRn [9] = target: T7, human FcRn; experiment: SPR Biacore T200, captured Ab, pH 6.0, steady state
[10] = target: T2, human FcγRIa extracellular domain with …; experiment: SPR Biacore T200, captured Ab, pH 7.4
[11] = target: T3, human FcγRIIIa F allotype extracellular …; experiment: SPR Biacore T200, captured Ab, pH 7.4
[12] = target: T4, human FcγRIIIa V allotype extracellular …; experiment: SPR Biacore T200, captured Ab, pH 7.4
[13] = target: T5, human FcγRIIa H allotype extracellular …; experiment: SPR Biacore T200, captured Ab, pH 7.4
[14] = target: T6, human FcγRIIa R allotype extracellular …; experiment: SPR Biacore T200, captured Ab, pH 7.4

Relative binding amount [1]: 1.3
Binding amount [2]: 0.015
Relative value to KD between G1m and hFcγRs [3]: 0.5
Relative value to KD between G1m and hFcγRs [4]: 41.3
Relative value to KD between G1m and hFcγRs [5]: 225
Relative value to KD between G1m and hFcγRs [6]: 20
Relative value to KD between G1m and hFcγRs [7]: 9.7
Relative value to KD between G1m and hFcRn (human FcRn [8]): 3
Kd (human FcRn [9]): 330 nM
Kd [10]: 0.15 nM
Kd [11]: 17 nM
Kd [12]: 3.9 nM
Kd [13]: 53 nM
Kd [14]: 160 nM
B1: 04H1389-Km473/04L1305-k0MT//04H1389-Hm451/04L1305-k0MT (antibody)
heavy 1: EVQLVESGGGLVKPGGSLRLSCAASGFTFSSKTMNWVRQAPGKGLEWVSSISTQSHYIYYAESVKGRFTISRDNAKNSLYLQMNSLRAEDTAVYYCARYGKREDMLWVFDYWGQGTLVTVSSASTKGPSVFPLAPSSKSTSGGTAALGCLVKDYFPEPVTVSWNSGALTSGVHTFPAVLQSSGLYSLSSVVTVPSSSLGTQTYICNVNHKPSNTKVDKRVEPKSCDKTHTCPPCPAPEFQWGPMVFLFPPKPKDVLMISRTPEVTCVVVDVSDEEPEVKFNWYVDGVEVHNAKTKPREEQYNATYRVVSVLPVLHQDWLNGKEYKCKVSNDALPAPIEKTISKAKGQPREPQVCTLPPSREEMTKNQVSLWCLVKGFYPSDIAVEWESNGQPENNYKTTPPVLDSDGSFFLYSKLTVDKSRWQQGNVFSCSVMHEALHAHTTRKELSLSP
heavy 2: EVQLVESGGGLVKPGGSLRLSCAASGFTFSSKTMNWVRQAPGKGLEWVSSISTQSHYIYYAESVKGRFTISRDNAKNSLYLQMNSLRAEDTAVYYCARYGKREDMLWVFDYWGQGTLVTVSSASTKGPSVFPLAPSSKSTSGGTAALGCLVKDYFPEPVTVSWNSGALTSGVHTFPAVLQSSGLYSLSSVVTVPSSSLGTQTYICNVNHKPSNTKVDKRVEPKSCDKTHTCPPCPAPELLAGPSVFLFPPKPKDVLMISRTPEVTCVVVDVSHEEPEVKFNWYVDGVEVHNAKTKPREEQYNATYRVVSVLPVLHQDWLNGKEYKCKVSNDALPAPIEETISKAKGQPREPQVYTLPPSRCEMTKNQVSLSCAVKGFYPSDIAVEWESNGQPENNYKTTPPVLDSDGSFFLVSKLTVDKSRWQQGNVFSCSVMHEALHAHTTRKELSLSP
light: DIVMTQSPLSLPVTPGEPASISCDGPSTGVGDYNYVHWYQQKPGQAPRLLIYFTSKKPSGVPDRFSGSGSGTDFTLKISRVEAEDVGVYYCQTYAAPLGPMFGQGTKLEIKRTVAAPSVFIFPPSDEQLKSGTASVVCLLNNFYPREAKVQWKVDNALQSGNSQESVTEQDSKDSTYSLSSTLTLSKADYEKHKVYACEVTHQGLSSPVTKSFNRGEC
notes: Heterodimerized antibody; also called SW1389-ART5+ACT1

Relative binding amount [1]: 3
Binding amount [2]: 0.034
Relative value to KD between G1m and hFcγRs [3]: 1.1
Relative value to KD between G1m and hFcγRs [4]: 258
Relative value to KD between G1m and hFcγRs [5]: 930
Relative value to KD between G1m and hFcγRs [6]: 30.8
Relative value to KD between G1m and hFcγRs [7]: 18.5
Relative value to KD between G1m and hFcRn (human FcRn [8]): 2.7
Kd (human FcRn [9]): 370 nM
Kd [10]: 0.061 nM
Kd [11]: 2.7 nM
Kd [12]: 0.95 nM
Kd [13]: 35 nM
Kd [14]: 86 nM
B2: 04H1389-Km473/04L1305-k0MT//04H1389-Hm482/04L1305-k0MT (antibody)
heavy 1: B1 heavy 1
heavy 2: B1 heavy 2 with A335K, I337D
light: B1 light
notes: Heterodimerized antibody; also called SW1389-ART6+ACT1
